Target: the molecule itself
Test: cryo-EM structure; single-particle cryo-EM of MS2 virions incubated with purified F-pili for 30 min at 37 °C; grids tilted 0°, 15° or 30°; maps at 5.0 Å (whole complex), 6.2 Å (F-pilus/Mat, local mask) and 5.6 to 7.3 Å (three classes)

B1: F-pilin, subunit of the E. coli F-pilus encoded by the pOX38 plasmid (natural protein, E. coli (pOX38 plasmid), UniProt P04737 52-121, looked up)
chain: AGSSGQDLMASGNTTVKATFGKDSSVVKWVVLAEVLVGAVMYMMTKNVKFLAGFAIISVFIAVGMAVVGL
notes: F-pilin of the pOX38 (F) plasmid, mature pilin; its first five residues are printed as AGSSG; assembled as a five-start helical filament with one phospholipid per pilin; initial model PDB 5LER. numbers count on: the mature protein; Stood in the assay as the assembled filament (stoichiometric pilin-phospholipid complex); the number of subunits is not fixed; source: on the cells for cryo-ET
- binding result: binds
